Experimental data published in article PMC2113082 (The Journal of Cell Biology, 1984).

Target: von Willebrand factor (human, UniProt P04275 764-2813)
Assay: ELISA

von Willebrand factor, sequence (P04275 764-2813): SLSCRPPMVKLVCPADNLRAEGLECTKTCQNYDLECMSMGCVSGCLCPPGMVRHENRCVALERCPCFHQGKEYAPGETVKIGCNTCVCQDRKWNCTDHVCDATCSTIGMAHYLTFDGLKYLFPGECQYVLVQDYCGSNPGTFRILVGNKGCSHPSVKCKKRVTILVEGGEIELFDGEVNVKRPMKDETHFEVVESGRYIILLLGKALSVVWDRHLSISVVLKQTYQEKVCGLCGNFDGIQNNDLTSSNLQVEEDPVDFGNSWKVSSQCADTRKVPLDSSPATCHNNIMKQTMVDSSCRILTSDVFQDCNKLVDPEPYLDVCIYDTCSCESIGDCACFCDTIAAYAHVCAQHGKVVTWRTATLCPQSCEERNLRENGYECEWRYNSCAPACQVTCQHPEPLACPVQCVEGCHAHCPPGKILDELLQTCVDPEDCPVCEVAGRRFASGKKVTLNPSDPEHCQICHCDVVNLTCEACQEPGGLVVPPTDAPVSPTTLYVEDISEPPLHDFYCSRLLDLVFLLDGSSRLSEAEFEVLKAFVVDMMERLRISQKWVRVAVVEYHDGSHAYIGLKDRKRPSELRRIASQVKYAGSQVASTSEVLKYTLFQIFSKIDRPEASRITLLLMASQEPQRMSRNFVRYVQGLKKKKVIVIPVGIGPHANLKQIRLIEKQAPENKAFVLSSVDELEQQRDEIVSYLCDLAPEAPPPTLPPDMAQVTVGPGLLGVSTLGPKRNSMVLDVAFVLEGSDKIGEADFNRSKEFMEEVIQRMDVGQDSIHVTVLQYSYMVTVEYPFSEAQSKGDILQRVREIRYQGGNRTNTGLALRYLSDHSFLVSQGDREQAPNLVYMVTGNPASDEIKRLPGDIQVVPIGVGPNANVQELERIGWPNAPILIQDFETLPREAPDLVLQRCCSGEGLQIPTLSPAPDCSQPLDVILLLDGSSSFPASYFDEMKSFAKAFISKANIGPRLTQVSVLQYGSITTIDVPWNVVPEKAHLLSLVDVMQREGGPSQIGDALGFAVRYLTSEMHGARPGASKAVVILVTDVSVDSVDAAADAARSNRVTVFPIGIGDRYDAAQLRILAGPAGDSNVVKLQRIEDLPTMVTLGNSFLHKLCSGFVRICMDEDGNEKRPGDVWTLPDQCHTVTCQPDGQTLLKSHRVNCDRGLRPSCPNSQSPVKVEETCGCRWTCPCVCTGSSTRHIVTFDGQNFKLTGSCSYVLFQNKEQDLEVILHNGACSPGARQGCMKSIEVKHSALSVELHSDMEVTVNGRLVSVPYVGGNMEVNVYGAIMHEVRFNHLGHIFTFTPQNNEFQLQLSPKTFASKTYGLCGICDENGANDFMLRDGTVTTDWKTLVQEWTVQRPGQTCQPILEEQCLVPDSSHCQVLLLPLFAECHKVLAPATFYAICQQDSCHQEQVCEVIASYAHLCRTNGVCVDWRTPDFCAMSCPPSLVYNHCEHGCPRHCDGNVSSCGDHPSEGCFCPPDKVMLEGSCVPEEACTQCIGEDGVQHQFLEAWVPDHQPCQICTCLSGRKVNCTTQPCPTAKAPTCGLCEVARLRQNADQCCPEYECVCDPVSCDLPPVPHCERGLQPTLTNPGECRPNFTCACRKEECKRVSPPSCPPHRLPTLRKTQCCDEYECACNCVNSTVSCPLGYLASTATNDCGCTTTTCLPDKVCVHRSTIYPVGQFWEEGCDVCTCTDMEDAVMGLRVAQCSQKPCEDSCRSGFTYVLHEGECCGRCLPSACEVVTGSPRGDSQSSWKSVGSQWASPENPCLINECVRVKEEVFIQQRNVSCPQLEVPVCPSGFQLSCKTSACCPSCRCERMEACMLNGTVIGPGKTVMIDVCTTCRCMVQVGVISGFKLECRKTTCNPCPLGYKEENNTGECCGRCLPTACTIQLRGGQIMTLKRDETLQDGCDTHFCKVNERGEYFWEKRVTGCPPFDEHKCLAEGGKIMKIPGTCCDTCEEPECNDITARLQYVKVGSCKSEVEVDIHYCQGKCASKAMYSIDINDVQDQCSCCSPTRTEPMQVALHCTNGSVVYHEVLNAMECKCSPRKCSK

B1: Phosphorylase b (enzyme, rabbit, UniProt P00489 1-843, looked up)
chain: MSRPLSDQEKRKQISVRGLAGVENVTELKKNFNRHLHFTLVKDRNVATPRDYYFALAHTVRDHLVGRWIRTQQHYYEKDPKRIYYLSLEFYMGRTLQNTMVNLALENACDEATYQLGLDMEELEEIEEDAGLGNGGLGRLAACFLDSMATLGLAAYGYGIRYEFGIFNQKICGGWQMEEADDWLRYGNPWEKARPEFTLPVHFYGRVEHTSQGAKWVDTQVVLAMPYDTPVPGYRNNVVNTMRLWSAKAPNDFNLKDFNVGGYIQAVLDRNLAENISRVLYPNDNFFEGKELRLKQEYFVVAATLQDIIRRFKSSKFGCRDPVRTNFDAFPDKVAIQLNDTHPSLAIPELMRVLVDLERLDWDKAWEVTVKTCAYTNHTVLPEALERWPVHLLETLLPRHLQIIYEINQRFLNRVAAAFPGDVDRLRRMSLVEEGAVKRINMAHLCIAGSHAVNGVARIHSEILKKTIFKDFYELEPHKFQNKTNGITPRRWLVLCNPGLAEIIAERIGEEYISDLDQLRKLLSYVDDEAFIRDVAKVKQENKLKFAAYLEREYKVHINPNSLFDVQVKRIHEYKRQLLNCLHVITLYNRIKKEPNKFVVPRTVMIGGKAAPGYHMAKMIIKLITAIGDVVNHDPVVGDRLRVIFLENYRVSLAEKVIPAADLSEQISTAGTEASGTGNMKFMLNGALTIGTMDGANVEMAEEAGEENFFIFGMRVEDVDRLDQRGYNAQEYYDRIPELRQIIEQLSSGFFSPKQPDLFKDIVNMLMHHDRFKVFADYEEYVKCQERVSALYKNPREWTRMVIRNIATSGKFSSDRTIAQYAREIWGVEPSRQRLPAPDEKIP
B1: binds.
